Source: paper PMC2912450

Target: His-tagged FliK (Salmonella) (UniProt P26416)
Test: SPR

Row | Substance | Kd [µM]
1 | FlhBc(N269A) (domain or fragment) | 10.5
2 | FlhBc(P270A) (domain or fragment) | 1.6
